Measured values reported in patent US20260242735A1 (UNIVERSIT T BASEL, published 2026).

Assays:
Assay in all cases: flow cytometry, transfected cells
human CD33 Y49C = human CD33 Y49C (human, UniProt P20138 18-364)
human CD33 Y49G = human CD33 Y49G (human, UniProt P20138 18-364)
human CD33 F44V = human CD33 F44V (human, UniProt P20138 18-364)
human CD33 I47N = human CD33 I47N (human, UniProt P20138 18-364)
human CD33 F44P = human CD33 F44P (human, UniProt P20138 18-364)
human CD33 F44H = human CD33 F44H (human, UniProt P20138 18-364)
human CD33 I47R = human CD33 I47R (human, UniProt P20138 18-364)
human CD33 F44S = human CD33 F44S (human, UniProt P20138 18-364)
human CD33 I47F = human CD33 I47F (human, UniProt P20138 18-364)
human CD33 F44I = human CD33 F44I (human, UniProt P20138 18-364)
human CD33 K52D = human CD33 K52D (human, UniProt P20138 18-364)
human CD33 I47L = human CD33 I47L (human, UniProt P20138 18-364)
human CD33 F44T = human CD33 F44T (human, UniProt P20138 18-364)
human CD33 F44D = human CD33 F44D (human, UniProt P20138 18-364)
human CD33 I47T = human CD33 I47T (human, UniProt P20138 18-364)
human CD33 I47P = human CD33 I47P (human, UniProt P20138 18-364)
human CD33 F44L = human CD33 F44L (human, UniProt P20138 18-364)
human CD33 I47Q = human CD33 I47Q (human, UniProt P20138 18-364)
human CD33 R122S = human CD33 R122S (human, UniProt P20138 18-364)
human CD33 R122I = human CD33 R122I (human, UniProt P20138 18-364)
human CD33 D51K = human CD33 D51K (human, UniProt P20138 18-364)
human CD33 R122T = human CD33 R122T (human, UniProt P20138 18-364)
human CD33 F44E = human CD33 F44E (human, UniProt P20138 18-364)
human CD33 I47E = human CD33 I47E (human, UniProt P20138 18-364)
human CD33 Y49P = human CD33 Y49P (human, UniProt P20138 18-364)
human CD33 R122F = human CD33 R122F (human, UniProt P20138 18-364)
human CD33 I47S = human CD33 I47S (human, UniProt P20138 18-364)
human CD33 I47W = human CD33 I47W (human, UniProt P20138 18-364)
human CD33 I47G = human CD33 I47G (human, UniProt P20138 18-364)
human CD33 R122E = human CD33 R122E (human, UniProt P20138 18-364)
human CD33 I47Y = human CD33 I47Y (human, UniProt P20138 18-364)
human CD33 Y49D = human CD33 Y49D (human, UniProt P20138 18-364)
human CD33 F44Q = human CD33 F44Q (human, UniProt P20138 18-364)

Measured: binding result

Sequence of human CD33 F44I (P20138 18-364 F44I limits assumed): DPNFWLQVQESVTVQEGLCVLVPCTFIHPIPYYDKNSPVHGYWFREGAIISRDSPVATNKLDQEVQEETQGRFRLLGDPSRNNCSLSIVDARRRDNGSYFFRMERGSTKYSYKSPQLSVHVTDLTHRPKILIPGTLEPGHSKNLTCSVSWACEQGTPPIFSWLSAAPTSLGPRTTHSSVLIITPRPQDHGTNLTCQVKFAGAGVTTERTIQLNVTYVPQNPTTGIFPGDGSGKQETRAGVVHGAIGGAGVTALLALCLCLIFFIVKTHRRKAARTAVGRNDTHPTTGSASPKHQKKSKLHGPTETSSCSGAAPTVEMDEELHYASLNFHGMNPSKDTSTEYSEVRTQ
Sequence of human CD33 K52D (P20138 18-364 K52D limits assumed): as the sequence (P20138 18-364 F44I limits assumed) above, with I27F, K35D counted along it
Sequence of human CD33 F44H (P20138 18-364 F44H limits assumed): as the sequence (P20138 18-364 F44I limits assumed) above, with I27H counted along it
Sequence of human CD33 R122I (P20138 18-364 R122I limits assumed): as the sequence (P20138 18-364 F44I limits assumed) above, with I27F, R105I counted along it
Sequence of human CD33 I47Y (P20138 18-364 I47Y limits assumed): as the sequence (P20138 18-364 F44I limits assumed) above, with I27F, I30Y counted along it
Sequence of human CD33 I47P (P20138 18-364 I47P limits assumed): as the sequence (P20138 18-364 F44I limits assumed) above, with I27F, I30P counted along it
Sequence of human CD33 I47G (P20138 18-364 I47G limits assumed): as the sequence (P20138 18-364 F44I limits assumed) above, with I27F, I30G counted along it
Sequence of human CD33 I47F (P20138 18-364 I47F limits assumed): as the sequence (P20138 18-364 F44I limits assumed) above, with I27F, I30F counted along it
Sequence of human CD33 D51K (P20138 18-364 D51K limits assumed): as the sequence (P20138 18-364 F44I limits assumed) above, with I27F, D34K counted along it
Sequence of human CD33 R122F (P20138 18-364 R122F limits assumed): as the sequence (P20138 18-364 F44I limits assumed) above, with I27F, R105F counted along it
Sequence of human CD33 F44V (P20138 18-364 F44V limits assumed): as the sequence (P20138 18-364 F44I limits assumed) above, with I27V counted along it
Sequence of human CD33 Y49G (P20138 18-364 Y49G limits assumed): as the sequence (P20138 18-364 F44I limits assumed) above, with I27F, Y32G counted along it
Sequence of human CD33 R122T (P20138 18-364 R122T limits assumed): as the sequence (P20138 18-364 F44I limits assumed) above, with I27F, R105T counted along it
Sequence of human CD33 Y49D (P20138 18-364 Y49D limits assumed): as the sequence (P20138 18-364 F44I limits assumed) above, with I27F, Y32D counted along it
Sequence of human CD33 F44Q (P20138 18-364 F44Q limits assumed): as the sequence (P20138 18-364 F44I limits assumed) above, with I27Q counted along it
Sequence of human CD33 R122E (P20138 18-364 R122E limits assumed): as the sequence (P20138 18-364 F44I limits assumed) above, with I27F, R105E counted along it
Sequence of human CD33 I47Q (P20138 18-364 I47Q limits assumed): as the sequence (P20138 18-364 F44I limits assumed) above, with I27F, I30Q counted along it
Sequence of human CD33 R122S (P20138 18-364 R122S limits assumed): as the sequence (P20138 18-364 F44I limits assumed) above, with I27F, R105S counted along it
Sequence of human CD33 F44D (P20138 18-364 F44D limits assumed): as the sequence (P20138 18-364 F44I limits assumed) above, with I27D counted along it
Sequence of human CD33 F44T (P20138 18-364 F44T limits assumed): as the sequence (P20138 18-364 F44I limits assumed) above, with I27T counted along it
Sequence of human CD33 I47N (P20138 18-364 I47N limits assumed): as the sequence (P20138 18-364 F44I limits assumed) above, with I27F, I30N counted along it
Sequence of human CD33 I47S (P20138 18-364 I47S limits assumed): as the sequence (P20138 18-364 F44I limits assumed) above, with I27F, I30S counted along it
Sequence of human CD33 Y49P (P20138 18-364 Y49P limits assumed): as the sequence (P20138 18-364 F44I limits assumed) above, with I27F, Y32P counted along it
Sequence of human CD33 I47L (P20138 18-364 I47L limits assumed): as the sequence (P20138 18-364 F44I limits assumed) above, with I27F, I30L counted along it
Sequence of human CD33 I47E (P20138 18-364 I47E limits assumed): as the sequence (P20138 18-364 F44I limits assumed) above, with I27F, I30E counted along it
Sequence of human CD33 Y49C (P20138 18-364 Y49C limits assumed): as the sequence (P20138 18-364 F44I limits assumed) above, with I27F, Y32C counted along it
Sequence of human CD33 I47W (P20138 18-364 I47W limits assumed): as the sequence (P20138 18-364 F44I limits assumed) above, with I27F, I30W counted along it
Sequence of human CD33 F44L (P20138 18-364 F44L limits assumed): as the sequence (P20138 18-364 F44I limits assumed) above, with I27L counted along it
Sequence of human CD33 F44P (P20138 18-364 F44P limits assumed): as the sequence (P20138 18-364 F44I limits assumed) above, with I27P counted along it
Sequence of human CD33 F44E (P20138 18-364 F44E limits assumed): as the sequence (P20138 18-364 F44I limits assumed) above, with I27E counted along it
Sequence of human CD33 F44S (P20138 18-364 F44S limits assumed): as the sequence (P20138 18-364 F44I limits assumed) above, with I27S counted along it
Sequence of human CD33 I47R (P20138 18-364 I47R limits assumed): as the sequence (P20138 18-364 F44I limits assumed) above, with I27F, I30R counted along it
Sequence of human CD33 I47T (P20138 18-364 I47T limits assumed): as the sequence (P20138 18-364 F44I limits assumed) above, with I27F, I30T counted along it

B1: Refmab #2 (antibody, human IgG1, V domains shown)
VH: QVQLVQSGAEVKKPGSSVKVSCKASGGTFSDYAISWVRQAPGQGLEWMGRIIPILGVADYAQKFQGRVTITADKSTRTAYMELSSLRSEDTAVYYCARNWADAFDIWGQGTMVTVSS
VL: DIQLTQSPSSLSASVGDRVTITCRASQGISSVLAWYQQKPGKAPKLLIYDASSLESGVPSRFSGSGSGTDFTLTISSLQPEDFATYYCQQFDSSITFGQGTKLEIK
no binding (tested: below 20%): human CD33 Y49C | human CD33 Y49G | human CD33 F44V | human CD33 I47N | human CD33 F44P | human CD33 F44H | human CD33 I47R | human CD33 F44S | human CD33 I47F | human CD33 F44I | human CD33 K52D | human CD33 I47L | human CD33 F44T | human CD33 F44D | human CD33 I47T | human CD33 I47P | human CD33 F44L | human CD33 I47Q | human CD33 R122S | human CD33 R122I | human CD33 D51K | human CD33 R122T | human CD33 F44E | human CD33 I47E | human CD33 Y49P | human CD33 R122F | human CD33 I47S | human CD33 I47W | human CD33 I47G | human CD33 R122E | human CD33 I47Y | human CD33 Y49D | human CD33 F44Q
